For three molecules, Kd results are on record in PMC9917425 (2023).

The experiment has as its target laminin-111 (Mus musculus, UniProt P19137). As to the kind of experiment: solid-phase binding assay.

B1: α-dystroglycan (α-DG) (protein)
chain: HWPSEPSEAVRDWKNQLEASMHSVLSDFQEAVPTVVGIPDGTAVVGRSFRVSIPTDLIASSGEIIKVSAAGKEALPSWLHWDPHSHILEGLPLDTDKGVHYISVSAARLGANGSHVPQTSSVFSIEVYPEDHNEPQSVRAASSDPGEVVPSACAADEPVTVLMVILDADLTKMTPKQRIDLLNRMQSFSEVELHNMKLVPVVNNRLFDMSAFMAGPGNAKKVVENGALLSWKLGCSLNQNSVPDIRGVETPAREGAMSAQLGYPVVGWHIANKKPTLPKRLRRQIHATPTPVTAIGPPTTAIQEPPSRIVPTPTSPAIAPPTETMAPPVRDPVPGKPTVTIRTRGAIIQTPTLGPIQPTRVSEAGTTVPGQIRPTLTIPGYVEPTAVITPPTTTTKKPRVSTPKPATPSTDSSTTTTRRPTKKPRTPRPVPRVTTKAPITRLETASPPTRIRTTTSGVPRGGEPNQRPELKNHIDRVDAWVGTYFEVKIPSDTFYDNEDTTTDKLKLTLKLREQQLVGEKSWVQFNSNSQLMYGLPDSSHVGKHEYFMHATDKGGLSAVDAFEIHVHKRPQGDKAPARFKARLAGDPAPVVNDIHKKIALVKKLAFAFGDRNCSSITLQNITRG
For orientation: Kd means the free concentration of one partner at which half of the binding sites on the other are occupied at equilibrium, for simple one-to-one binding. B1 yielded a Kd of 1.9 nM.

B2: α-dystroglycan (α-DG) (protein)
chain: HWPSEPSEAVRDWKNQLEASMHSVLSDFQEAVPTVVGIPDGTAVVGRSFRVSIPTDLIASSGEIIKVSAAGKEALPSWLHWDPHSHILEGLPLDTDKGVHYISVSAARLGANGSHVPQTSSVFSIEVYPEDHNEPQSVRAASSDPGEVVPSACAADEPVTVLTVILDADLTKMTPKQRIDLLNRMQSFSEVELHNMKLVPVVNNRLFDMSAFMAGPGNAKKVVENGALLSWKLGCSLNQNSVPDIRGVETPAREGAMSAQLGYPVVGWHIANKKPTLPKRLRRQIHATPTPVTAIGPPTTAIQEPPSRIVPTPTSPAIAPPTETMAPPVRDPVPGKPTVTIRTRGAIIQTPTLGPIQPTRVSEAGTTVPGQIRPTLTIPGYVEPTAVITPPTTTTKKPRVSTPKPATPSTDSSTTTTRRPTKKPRTPRPVPRVTTKAPITRLETASPPTRIRTTTSGVPRGGEPNQRPELKNHIDRVDAWVGTYFEVKIPSDTFYDNEDTTTDKLKLTLKLREQQLVGEKSWVQFNSNSQLMYGLPDSSHVGKHEYFMHATDKGGLSAVDAFEIHVHKRPQGDKAPARFKARLAGDPAPVVNDIHKKIALVKKLAFAFGDRNCSSITLQNITRG
modifications: matriglycan O-glycosylation (full-length)
Turning to B2, the affinity, expressed as Kd, was 0.966 nM.

B3: α-dystroglycan lacking N-terminal domain (M-α-DGN KO) 317-653 (protein)
chain: TPVTAIGPPTTAIQEPPSRIVPTPTSPAIAPPTETMAPPVRDPVPGKPTVTIRTRGAIIQTPTLGPIQPTRVSEAGTTVPGQIRPTLTIPGYVEPTAVITPPTTTTKKPRVSTPKPATPSTDSSTTTTRRPTKKPRTPRPVPRVTTKAPITRLETASPPTRIRTTTSGVPRGGEPNQRPELKNHIDRVDAWVGTYFEVKIPSDTFYDNEDTTTDKLKLTLKLREQQLVGEKSWVQFNSNSQLMYGLPDSSHVGKHEYFMHATDKGGLSAVDAFEIHVHKRPQGDKAPARFKARLAGDPAPVVNDIHKKIALVKKLAFAFGDRNCSSITLQNITRGSI
modifications: short non-elongated matriglycan O-glycosylation
B3 showed a Kd of 2.32 nM.
